Reference: US6387643B1, “Human platelet heparanase polypeptides, polynucleotide molecules that encode them, and methods for the identification of compounds that alter heparanase activity” (Pharmacia and Upjohn Company, priority 1998, dated 2002)

Experiments:
[1] = test system: platelets; details: 1 U/ml thrombin; cited from earlier work
[2] = test system: ^35S-HSPG (>70 K); test: Heparanase activity, Conventional Assay (degradation of 35S-HSPG, 30,000 MW cut-off filter); type: biochemical, mice
Protocol: The pH optimum of the purified heparanase was determined by conducting the assay described in Example 2 (the Conventional Assay) in the pH range of 3.5 to 8.0, using a citrate buffer (pH 3.5-6.0), citrate-phosphate buffer (pH 6.5-7.0), and phosphate buffer (pH 7.5-8). Heparanase was active between pH 5.0 and 8.0, with the optimum pH at 5.8.
^35S-HSPG (>70 K) was prepared from mice bearing a basement membrane tumor that overproduces HSPG (EHS tumor), using modifications of the method of Ledbetter et al. (Biochemistry 26: 988-995 (1987)). Briefly, the radiolabeled HSPG was prepared by injecting C57BL mice bearing the EHS tumor with sodium [^35S] sulfate (0.5 mCi/mouse) 18 h before harvesting the tumor. […]
^35S-HSPG was isolated from the Buffer B supernatant by sequential chromatography on anion exchange and gel filtration columns. […] Fractions were sampled for radioactivity, and those containing the ^35SO4 label that eluted from the DEAE-Sephacel between 0.4 M and 0.8 M NaCl were pooled. […] Fractions were sampled for radioactivity, and those containing the ^35SO4 label that elutes with a molecular weight 70 kDa were pooled. […]
Heparanase activity from platelets or column fractions was detected by its ability to digest the 70 kDa ^35S-HSPG to produce lower molecular weight products. not retained by a 30,000 MW cut-off membrane. […]

Molecule: thrombin
- heparanase activity released from platelets [1]: 100%

B1: purified heparanase: Human platelet heparanase: non-covalently associated 56 kDa (residues 145-530) and 8 kDa (residues 23-96) polypeptides of SEQ ID NO:2 (protein)
chain: QDVVDLDFFTQEPLHLVSPSFLSVTIDANLATDPRFLILLGSPKLRTLARGLSPAYLRFGGTKTDFLIFDPKKESTFEERSYWQSQVNQDICKYGSIPPDVEEKLRLEWPYQEQLLLREHYQKKFKNSTYSRSSVDVLYTFANCSGLDLIFGLNALLRTADLQWNSSNAQLLLDYCSSKGYNISWELGNEPNSFLKKADIFINGSQLGEDFIQLHKLLRKSTFKNAKLYGPDVGQPRRKTAKMLKSFLKAGGEVIDSVTWHHYYLNGRTATKEDFLNPDVLDIFISSVQKVFQVVESTRPGKKVWLGETSSAYGGGAPLLSDTFAAGFMWLDKLGLSARMGIEVVMRQVFFGAGNYHLVDENFDPLPDYWLSLLFKKLVGTKVLMASVQGSKRRKLRVYLHCTNTDNPRYKEGDLTLYAINLHNVTKYLRLPYPFSNKQVDKYLLRPLGPHGLLSKSVQLNGLTLKMVDDQTLPPLMEKPLRPGSSLGLPAFSYSFFVIRNAKVAACI
modifications: two chains: residues 145-530 and 23-96
- optimum pH of heparanase activity ([2]; pH range 3.5 to 8.0, citrate, citrate-phosphate and phosphate buffers): 5.8

B2: Pro-heparanase: 508 residue protein, amino acid residues 23 to 530 of SEQ ID NO: 2, precursor of heparanase (protein)
chain: QDVVDLDFFTQEPLHLVSPSFLSVTIDANLATDPRFLILLGSPKLRTLARGLSPAYLRFGGTKTDFLIFDPKKESTFEERSYWQSQVNQDICKYGSIPPDVEEKLRLEWPYQEQLLLREHYQKKFKNSTYSRSSVDVLYTFANCSGLDLIFGLNALLRTADLQWNSSNAQLLLDYCSSKGYNISWELGNEPNSFLKKADIFINGSQLGEDFIQLHKLLRKSTFKNAKLYGPDVGQPRRKTAKMLKSFLKAGGEVIDSVTWHHYYLNGRTATKEDFLNPDVLDIFISSVQKVFQVVESTRPGKKVWLGETSSAYGGGAPLLSDTFAAGFMWLDKLGLSARMGIEVVMRQVFFGAGNYHLVDENFDPLPDYWLSLLFKKLVGTKVLMASVQGSKRRKLRVYLHCTNTDNPRYKEGDLTLYAINLHNVTKYLRLPYPFSNKQVDKYLLRPLGPHGLLSKSVQLNGLTLKMVDDQTLPPLMEKPLRPGSSLGLPAFSYSFFVIRNAKVAACI
- catalytic activity ([2]; before cleavage of the Glu96-Ser97 and Gln144-Lys145 bonds): not catalytically active
